Substrate in the data set: O=P(O)(O)O[C@H]1[C@H](OP(=O)(O)O)[C@@H](OP(=O)(O)O)[C@H](OP(=O)(O)O)[C@@H](OP(=O)(O)O)[C@H]1OP(=O)(O)O
In words: purified protein. The conditions noted are these: 100 mM Tris-HCl pH 7.5, 50 °C, 10 min, 0.125-4.0 mM sodium phytate, printed kcat does not agree with printed Vmax and Mw.

B1: r-Aophytase (recombinant Aophytase; G1XN29 protein) (Orbilia oligospora ATCC 24927) (protein)
chain: ADKFSITLPITARTSSVESDSAAVYYPSKSKYSPIFIGNDGSAETGGFHVYELYGKRSDALVKELGAYKTGRSKLVEVVYGEDRDFVVTLSMSDGMFRVFEVDGKNGVRGLKAEKLVRGDFSAMCTWKSKVGEYVYVLGKRWGYRFLVREKKGGRGVEVVQTQEFGIPIEPNSCTVSPEGKVFLAGDSGKVFSFLAVDETAAPKIVEVGELGGGDEVKGLKIYHGKKDTYLLVGLEDGIEVFDIKKLGSSLGKIQFDDEELEVGDFAVHQTSAKGYEDGSIVFAGEDGEGKFFGVSSLTPLFKALGKGKLNTKYDPRDCTDNHARPKKCANLSDCNGYGYCPKDSRDKKATCDCFPGLTGKTCNKITCPSNCTSPSHGTCTGPNICTCIPPFTGENCATLAVPARYETEESGGADGDDPAIWIHPTDKTKSRIITTVKSEVGSGLGVYDLKGKRTGGVSGGEPNNVDVLYGVEFAGRKVDLAVAACRADDTICIYEITPTGDLVTIPGGVQPLPPAVKELEKKFKVYGSCVYHSPKTGAYHIFVNSKSSLYLQFQLSATTDGKLNTTLVRHFYAGNRGQVEGCVVDDENSSLFLGEEPYGIWSYDAEPDQPAVGTLVDNTVVDGGKLHADVEGVTLVYGKTKKEGYIIVSCQGYSEYNIYQRYPPHEFVMSFSIPDNKEKGVDRVTNTDGITAVGANLGKEWPYGMVVVHDDVNEAAGGGVRADATFKIVGLGDILGNKAVKELGLLKGVDENWDPRK
As to B1, the Km stood at 1015 µM and the kcat came out at 13.57 s⁻¹.

The record behind these values is PMC7137328.
